Article PMC13538652

Biological target: T1, GZF1-Flag (UniProt Q4VBD9 1-706)
T1 sequence: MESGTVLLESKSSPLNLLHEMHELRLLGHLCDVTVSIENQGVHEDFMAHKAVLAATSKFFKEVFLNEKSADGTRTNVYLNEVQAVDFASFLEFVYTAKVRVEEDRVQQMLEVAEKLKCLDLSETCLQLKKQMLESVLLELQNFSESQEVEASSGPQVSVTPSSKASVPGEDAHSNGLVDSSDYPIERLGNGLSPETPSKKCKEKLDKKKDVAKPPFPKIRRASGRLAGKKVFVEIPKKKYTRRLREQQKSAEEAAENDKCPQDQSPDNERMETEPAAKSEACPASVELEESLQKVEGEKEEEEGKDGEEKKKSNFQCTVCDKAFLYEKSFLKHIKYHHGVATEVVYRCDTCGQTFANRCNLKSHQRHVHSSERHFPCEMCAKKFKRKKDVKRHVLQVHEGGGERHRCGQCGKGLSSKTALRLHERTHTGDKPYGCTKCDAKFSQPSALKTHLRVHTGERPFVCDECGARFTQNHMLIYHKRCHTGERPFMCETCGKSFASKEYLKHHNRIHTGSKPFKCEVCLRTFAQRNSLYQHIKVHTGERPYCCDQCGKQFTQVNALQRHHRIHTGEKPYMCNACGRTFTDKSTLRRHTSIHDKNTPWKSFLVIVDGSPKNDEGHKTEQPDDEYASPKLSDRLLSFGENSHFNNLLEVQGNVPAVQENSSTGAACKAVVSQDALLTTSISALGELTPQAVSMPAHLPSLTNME
Test: PBM

B1: Gzf1_bs_unmethylated (structured_DNA)
DNA: GAGGCCATTACGGTAATGCCTCCTGGCATTACCGTAATGGCCTCACACTC
  binding result: binds
